Measured values published in patent publication US20180364250A1 (published 2018).
Read-outs that look alike come from different tables or passages of the source. Blank lines part the entries; values can stand above or below the binder they belong to.

Legend:
[1] = biological target: T1, Ubiquitin (free, untagged) (UniProt P0CG48 1-76); assay: fluorescence intensity
K11 Ub2 = assay: fluorescence competition with 5 nM Atto532-Ub(S20C) and 600 nM tSR
K48 Ub4 = assay: as above
K63 Ub2 = assay: as above
[2] = biological target: T1, Ubiquitin (free, untagged); assay: competition
[3] = biological target: T1, Ubiquitin (free, untagged)

- Kd [1]: 587 nM
B1: Atto532-tagged tIV L1 Cys (designed binder)
chain: MGSSHHHHHHSSGLVPRGSHMKQEVQAWDGEVRQVSKHAFSLKQLDNPARIPPSGWKCSKCDMRENLWLNLTDGSILCGRRYFDGSGGNNHAVEHYRETGYPLAVKLGTITPDGADVWSYDEDDMVLDPSLAEHLSHFGIDMLKMQKGSCAAAEEAELDLKAAIQESLREA
modifications: Atto532 fluorophore on the Cys of linker 1 (the bold C of the 2nd table)

- Kd [3]: 8.4 µM
B4: Atto532-tagged IsoT^ZnF (S227C) (designed binder)
chain: MPSSHHHHHHSSGLVPRGSHMKQEVQAWDGEVRQVSKHAFSLKQLDNPARIPPSGWKCSKCDMRENLWLNLTDGSILCGRRYFDGCGGNNHAVEHYRETGYPLAVKLGTITPDGADVYSYDEDDMVLDPSLAEHLSHFGIDMLKMQK
modifications: Atto532 fluorophore on the Cys of S227C (the bold C of the 2nd table)

The next lines start with the binder.

B2: tSR (designed binder)
chain: MPSSHHHHHHSSGLVPRGSHMTEEEQIAYAMQMSLREAGGGSDLLCKKGCGYYGNPAWQGFCSKCWREEAHKCAAERAAAE
- Ki (K11 Ub2): 4.2 µM
- Ki (K48 Ub4): 4 µM
- Ki (K63 Ub2): 4.3 µM

B3: tSR chimeric polypeptide sensor (designed binder)
chain: B2 chain
- Ki [2]: 4.3 µM
